Columns and labels:
[1] = system: HeLa Kyoto; assay: thermal stability score vs G1/S (z-score of summed log2 fold changes over temperatures); higher = more thermally stable than in G1/S
[2] = system: HeLa Kyoto; assay: solubility in G1/S (NP-40 vs SDS abundance) (log2 ratio); higher = more soluble; conditions: cell cycle stage: G1/S
[3] = system: HeLa Kyoto; assay: solubility change mitosis vs G1/S (difference of NP-40 vs SDS log2 ratios) (log2 ratio difference); higher = more soluble in mitosis
[4] = system: HeLa Kyoto; assay: melting temperature (median over replicates), in situ; higher = more thermally stable
[5] = cell cycle stage: early G1 (4.5 h after nocodazole release)
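Throughout, for melting temperature (median over replicates), in situ: HeLa Kyoto cells synchronized by double thymidine or nocodazole block, proteins quantified by TMT10plex mass spectrometry, three independent biological replicates.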
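Throughout, for solubility change mitosis vs G1/S (difference of NP-40 vs SDS log2 ratios): synchronized HeLa Kyoto cells (double thymidine block for G1/S, nocodazole release for mitosis), protein amounts in NP-40 versus SDS lysates quantified by mass spectrometry, three biological replicates.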
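Throughout, for solubility in G1/S (NP-40 vs SDS abundance): HeLa Kyoto cells arrested at G1/S by double thymidine block, proteins quantified by TMT10plex mass spectrometry in mild NP-40 versus SDS extracts, three biological replicates.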
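Throughout, for thermal stability score vs G1/S (z-score of summed log2 fold changes over temperatures): synchronized HeLa Kyoto cells, proteins quantified by TMT10plex mass spectrometry, three biological replicates, mitosis taken 0.5 h after nocodazole release, G1/S directly after double thymidine block.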

Question: Which thermal stability score [1, 5] does the source give for “MGSPEGRFHFAIDRGGTFTDVFAQCPGGHVRVLKLLSEDPANYADAPTEGIRRILEQEAGMLLPRDQPLDSSHIASIRMGTTVATNALLERKGERVALLVTRGFRDLLHIGTQARGDLFDLAVPMPEVLYEEVLEVDERVVLHRGEAGTGTPVKGRTGDLLEVQQPVDLGALRGKLEGLLSRGIRSLAVVLMHSYTWAQHEQQVGVLARELGFTHVSLSSEAMPMVRIVPRGHTACADAYLTPAIQRYVQGFCRGFQGQLKDVQVLFMRSDGGLAPMDTFSGSSAVLSGPAGGVVGYSATTYQQEGGQPVIGFDMGGTSTDVSRYAGEFEHVFEASTAGVTLQAPQLDINTVAAGGGSRLFFRSGLFVVGPESAGAHPGPACYRKGGPVTVTDANLVLGRLLPASFPCIFGPGENQPLSPEASRKALEAVATEVNSFLTNGPCPASPLSLEEVAMGFVRVANEAMCRPIRALTQARGHDPSAHVLACFGGAGGQHACAIARALGMDTVHIHRHSGLLSALGLALADVVHEAQEPCSLLYAPETFVQLDQRLSRLEEQCVDALQAQGFPRSQISTESFLHLRYQGTDCALMVSAHQHPATARSPRAGDFGAAFVERYMREFGFVIPERPVVVDDVRVRGTGRSGLRLEDAPKAQTGPPRVDKMTQCYFEGGYQETPVYLLAELGYGHKLHGPCLIIDSNSTILVEPGCQAEVTKTGDICISVGAEVPGTVGPQLDPIQLSIFSHRFMSIAEQMGRILQRTAISTNIKERLDFSCALFGPDGGLVSNAPHIPVHLGAMQETVQFQIQHLGADLHPGDVLLSNHPSAGGSHLPDLTVITPVFWPGQTRPVFYVASRGHHADIGGITPGSMPPHSTMLQQEGAVFLSFKLVQGGVFQEEAVTEALRAPGKVPNCSGTRNLHDNLSDLRAQVAANQKGIQLVGELIGQYGLDVVQAYMGHIQANAELAVRDMLRAFGTSRQARGLPLEVSSEDHMDDGSPIRLRVQISLSQGSAVFDFSGTGPEVFGNLNAPRAVTLSALIYCLRCLVGRDIPLNQGCLAPVRVVIPRGSILDPSPEAAVVGGNVLTSQRVVDVILGAFGACAASQGCMNNVTLGNAHMGYYETVAGGAGAGPSWHGRSGVHSHMTNTRITDPEILESRYPVILRRFELRRGSGGRGRFRGGDGVTRELLFREEALLSVLTERRAFRPYGLHGGEPGARGLNLLIRKNGRTVNLGGKTSVTVYPGDVFCLHTPGGGGYGDPEDPAPPPGSPPQALAFPEHGSVYEYRRAQEAV [OPLAH]” here?
Answer: Its thermal stability score is -0.162.

Question: And the thermal stability score ([1]; cell cycle stage: mitosis)?
Answer: The thermal stability score was -0.669.

Question: And the “solubility in G1/S (log2)” value [2]?
Answer: The value was 0.0511.

Question: And the “solubility change mitosis (log2)” value [3]?
Answer: Its value is -0.171.

Question: What about the melting temperature ([4]; cell cycle stage: G1/S) of the same substance?
Answer: Its melting temperature is 51.1 °C.

Question: And the melting temperature ([4]; cell cycle stage: mitosis)?
Answer: Its melting temperature is 51.3 °C.

Question: With “MGSQVSVESGALHVVIVGGGFGGIAAASQLQALNVPFMLVDMKDSFHHNVAALRASVETGFAKKTFISYSVTFKDNFRQGLVVGIDLKNQMVLLQGGEALPFSHLILATGSTGPFPGKFNEVSSQQAAIQAYEDMVRQVQRSRFIVVVGGGSAGVEMAAEIKTEYPEKEVTLIHSQVALADKELLPSVRQEVKEILLRKGVQLLLSERVSNLEELPLNEYREYIKVQTDKGTEVATNLVILCTGIKINSSAYRKAFESRLASSGALRVNEHLQVEGHSNVYAIGDCADVRTPKMAYLAGLHANIAVANIVNSVKQRPLQAYKPGALTFLLSMGRNDGVGQISGFYVGRLMVRLTKSRDLFVSTSWKTMRQSPP [AIFM2]” as the substance, how does the thermal stability score [1, 5] read?
Answer: Its thermal stability score is -1.05.

Question: What about the thermal stability score ([1]; cell cycle stage: mitosis) of the same substance?
Answer: The thermal stability score was -2.26.

Question: What about the “solubility in G1/S (log2)” value [2] of the same substance?
Answer: The value was 0.112.

Question: What about the “solubility change mitosis (log2)” value [3] of the same substance?
Answer: The value was -0.209.

Question: And the melting temperature ([4]; cell cycle stage: G1/S)?
Answer: Its melting temperature is 55.3 °C.

Question: And the melting temperature ([4]; cell cycle stage: mitosis)?
Answer: The melting temperature was 53.7 °C.

Question: With “MGSRIKQNPETTFEVYVEVAYPRTGGTLSDPEVQRQFPEDYSDQEVLQTLTKFCFPFYVDSLTVSQVGQNFTFVLTDIDSKQRFGFCRLSSGAKSCFCILSYLPWFEVFYKLLNILADYTTKRQENQWNELLETLHKLPIPDPGVSVHLSVHSYFTVPDTRELPSIPENRNLTEYFVAVDVNNMLHLYASMLYERRILIICSKLSTLTACIHGSAAMLYPMYWQHVYIPVLPPHLLDYCCAPMPYLIGIHLSLMEKVRNMALDDVVILNVDTNTLETPFDDLQSLPNDVISSLKNRLKKVSTTTGDGVARAFLKAQAAFFGSYRNALKIEPEEPITFCEEAFVSHYRSGAMRQFLQNATQLQLFKQFIDGRLDLLNSGEGFSDVFEEEINMGEYAGSDKLYHQWLSTVRKGSGAILNTVKTKANPAMKTVYKFAKDHAKMGIKEVKNRLKQKDIAENGCAPTPEEQLPKTAPSPLVEAKDPKLREDRRPITVHFGQVRPPRPHVVKRPKSNIAVEGRRTSVPSPEQPQPYRTLRESDSAEGDEAESPEQQVRKSTGPVPAPPDRAASIDLLEDVFSNLDMEAALQPLGQAKSLEDLRAPKDLREQPGTFDYQRLDLGGSERSRGVTVALKLTHPYNKLWSLGQDDMAIPSKPPAASPEKPSALLGNSLALPRRPQNRDSILNPSDKEEVPTPTLGSITIPRPQGRKTPELGIVPPPPIPRPAKLQAAGAALGDVSERLQTDRDRRAALSPGLLPGVVPQGPTELLQPLSPGPGAAGTSSDALLALLDPLSTAWSGSTLPSRPATPNVATPFTPQFSFPPAGTPTPFPQPPLNPFVPSMPAAPPTLPLVSTPAGPFGAPPASLGPAFASGLLLSSAGFCAPHRSQPNLSALSMPNLFGQMPMGTHTSPLQPLGPPAVAPSRIRTLPLARSSARAAETKQGLALRPGDPPLLPPRPPQGLEPTLQPSAPQQARDPFEDLLQKTKQDVSPSPALAPAPDSVEQLRKQWETFE [DENND1A]” as the substance, how does the thermal stability score [1, 5] read?
Answer: The thermal stability score was 0.0881.

Question: What about the thermal stability score ([1]; cell cycle stage: mitosis) of the same substance?
Answer: The thermal stability score was 1.02.

Question: What about the “solubility in G1/S (log2)” value [2] of the same substance?
Answer: Its value is 0.079.

Question: And the “solubility change mitosis (log2)” value [3]?
Answer: Its value is -0.0536.

Question: What about the melting temperature ([4]; cell cycle stage: mitosis) of the same substance?
Answer: Its melting temperature is 53.6 °C.

Question: What does the source list for “MGSSATEIEELENTTFKYLTGEQTEKMWQRLKGILRCLVKQLERGDVNVVDLKKNIEYAASVLEAVYIDETRRLLDTEDELSDIQTDSVPSEVRDWLASTFTRKMGMTKKKPEEKPKFRSIVHAVQAGIFVERMYRKTYHMVGLAYPAAVIVTLKDVDKWSFDVFALNEASGEHSLKFMIYELFTRYDLINRFKIPVSCLITFAEALEVGYSKYKNPYHNLIHAADVTQTVHYIMLHTGIMHWLTELEILAMVFAAAIHDYEHTGTTNNFHIQTRSDVAILYNDRSVLENHHVSAAYRLMQEEEMNILINLSKDDWRDLRNLVIEMVLSTDMSGHFQQIKNIRNSLQQPEGIDRAKTMSLILHAADISHPAKSWKLHYRWTMALMEEFFLQGDKEAELGLPFSPLCDRKSTMVAQSQIGFIDFIVEPTFSLLTDSTEKIVIPLIEEASKAETSSYVASSSTTIVGLHIADALRRSNTKGSMSDGSYSPDYSLAAVDLKSFKNNLVDIIQQNKERWKELAAQEARTSSQKCEFIHQ [PDE1A]”?
Answer: thermal stability score [1, 5]: 1.43; thermal stability score ([1]; cell cycle stage: mitosis): 2.27; solubility in G1/S (log2) [2]: -0.162; solubility change mitosis (log2) [3]: -0.0985; melting temperature ([4]; cell cycle stage: G1/S): 55.2 °C; melting temperature ([4]; cell cycle stage: mitosis): 54.1 °C

Question: With MGST3 as the substance, how does the thermal stability score [1, 5] read?
Answer: The thermal stability score was -2.44.

Question: What about the thermal stability score ([1]; cell cycle stage: mitosis) of the same substance?
Answer: The thermal stability score was -4.93.

Question: What about the “solubility in G1/S (log2)” value [2] of the same substance?
Answer: The value was -0.272.

Question: What about the “solubility change mitosis (log2)” value [3] of the same substance?
Answer: The value was 0.0779.

Question: And the melting temperature ([4]; cell cycle stage: G1/S)?
Answer: Its melting temperature is 56.3 °C.

Question: And the melting temperature ([4]; cell cycle stage: mitosis)?
Answer: Its melting temperature is 55.7 °C.

Question: Which results are given for “MGSVLGLCSMASWIPCLCGSAPCLLCRCCPSGNNSTVTRLIYALFLLVGVCVACVMLIPGMEEQLNKIPGFCENEKGVVPCNILVGYKAVYRLCFGLAMFYLLLSLLMIKVKSSSDPRAAVHNGFWFFKFAAAIAIIIGAFFIPEGTFTTVWFYVGMAGAFCFILIQLVLLIDFAHSWNESWVEKMEEGNSRCWYAALLSATALNYLLSLVAIVLFFVYYTHPASCSENKAFISVNMLLCVGASVMSILPKIQESQPRSGLLQSSVITVYTMYLTWSAMTNEPETNCNPSLLSIIGYNTTSTVPKEGQSVQWWHAQGIIGLILFLLCVFYSSIRTSNNSQVNKLTLTSDESTLIEDGGARSDGSLEDGDDVHRAVDNERDGVTYSYSFFHFMLFLASLYIMMTLTNWYRYEPSREMKSQWTAVWVKISSSWIGIVLYVWTLVAPLVLTNRDFD [SERINC1]”?
Answer: thermal stability score [1, 5]: -4.14; thermal stability score ([1]; cell cycle stage: mitosis): -5.22; solubility in G1/S (log2) [2]: -0.167; solubility change mitosis (log2) [3]: -0.141; melting temperature ([4]; cell cycle stage: G1/S): 56.2 °C; melting temperature ([4]; cell cycle stage: mitosis): 60.6 °C
